Source: paper PMC10962938 (Proceedings of the National Academy of Sciences of the …, 2024)
Like-named read-outs stand apart in the source and are kept apart here.

B1: DnaJB11 (BiP co-chaperone, J-protein) (natural protein)
chain: GRDFYKILGVPRSASIKDIKKAYRKLALQLHPDRNPDDPQAQEKFQDLGAAYEVLSDSEKRKQYDTYGEEGLKDGHQSSHGDIFSHFFGDFGFMFGGTPRQQDRNIPRGSDIIVDLEVTLEEVYAGNFVEVVRNKPVARQAPGKRKCNCRQEMRTTQLGPGRFQMTQEVVCDECPNVKLVNEERTLEVEIEPGVRDGMEYPFIGEGEPHVDGEPGDLRFRIKVVKHPIFERRGDDLYTNVTISLVESLVGFEMDITHLDGHKVHISRDKITRPGAKLWKKGEGLPNFDNNNIKGSLIITFDVDFPKEQLTEEAREGIKQLLKQGSVQKVYNGLQGY

Tests used:
[1] = target: Δ131Δ with a K16C mutation (model client); assay: fluorescence polarisation
[2] = target: Δ131Δ with a K16C mutation (model client); assay: fluorescence polarisation; remark: listed apart in the source
[3] = target: Grp94 full-length (FL) wild type (human, UniProt P14625 22-803, biotin label (Grp94 NH3-bio), in the streptavidin pull-down); assay: pull-down
Chain of Grp94 full-length (FL) wild type (human, UniProt P14625 22-803, biotin label (Grp94 NH3-bio), in the streptavidin pull-down) (P14625 22-803): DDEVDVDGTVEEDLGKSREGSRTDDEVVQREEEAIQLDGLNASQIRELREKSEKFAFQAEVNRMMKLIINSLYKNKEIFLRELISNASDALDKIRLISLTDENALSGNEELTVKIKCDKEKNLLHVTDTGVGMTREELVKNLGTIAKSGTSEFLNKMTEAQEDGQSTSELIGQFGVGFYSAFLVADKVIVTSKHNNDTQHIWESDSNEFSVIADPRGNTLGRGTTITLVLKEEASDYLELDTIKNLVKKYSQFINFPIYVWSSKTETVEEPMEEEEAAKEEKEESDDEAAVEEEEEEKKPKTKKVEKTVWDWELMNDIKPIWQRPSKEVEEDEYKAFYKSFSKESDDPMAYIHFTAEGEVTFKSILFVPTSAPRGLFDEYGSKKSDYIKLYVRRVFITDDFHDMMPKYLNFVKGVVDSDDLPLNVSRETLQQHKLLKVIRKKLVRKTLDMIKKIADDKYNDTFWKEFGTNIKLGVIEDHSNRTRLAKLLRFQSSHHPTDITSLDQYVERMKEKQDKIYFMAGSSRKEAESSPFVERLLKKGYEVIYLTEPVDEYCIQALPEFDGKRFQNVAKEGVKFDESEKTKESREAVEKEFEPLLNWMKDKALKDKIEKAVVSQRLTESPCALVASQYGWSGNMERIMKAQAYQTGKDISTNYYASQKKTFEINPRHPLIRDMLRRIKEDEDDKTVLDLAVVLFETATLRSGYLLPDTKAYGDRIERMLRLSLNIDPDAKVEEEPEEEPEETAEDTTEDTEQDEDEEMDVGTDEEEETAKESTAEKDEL

Molecule	fold decrease of binding affinity against apo conditions [1] [fold]	fold decrease of binding affinity against apo conditions [2] [fold]	Kd [2] [µM]	binding result [3]
Grp94 Δ72 (pre-N domain truncation, aa 73-803) (from UniProt P14625 73-803) (domain or fragment)	6	4		
Grp94 full-length (FL) wild type (from UniProt P14625 22-803) (natural protein)	2	2	7.2	
B1				binds
